Article PMC10638397, “Engineering sulfonate group donor regeneration systems to boost biosynthesis of sulfated compounds” (Nature Communications, 2023)

Assays:
[1] = substrate: Nc1ncnc2c1ncn2[C@@H]1O[C@H](COP(=O)(O)OS(=O)(=O)O)[C@@H](OP(=O)(O)O)[C@H]1O; assay: sulfotransferase kinetics, HPLC-MS; assay type: biochemical, Mus musculus; conditions: Mg2+, pH 7.5, 35 °C (general assay), acceptor not given
purified protein = substrate: Nc1ncnc2c1ncn2[C@@H]1O[C@H](COP(=O)(O)OS(=O)(=O)O)[C@@H](O)[C@H]1O; assay: purified protein; conditions: Mg2+, pH 7.5, 35 °C (general assay), acceptor not given
[2] = substrate: Nc1ncnc2c1ncn2[C@@H]1O[C@H](COP(=O)(O)OS(=O)(=O)O)[C@@H](OP(=O)(O)O)[C@H]1O; assay: sulfotransferase kinetics, HPLC-MS; assay type: biochemical, Rattus norvegicus; conditions: Mg2+, pH 7.5, 35 °C (general assay), acceptor not given
Description: sulfotransferase kinetics, HPLC-MS on aryl sulfotransferase IV (AST IV)

[3] = substrate: Nc1ncnc2c1ncn2[C@@H]1O[C@H](COP(=O)(O)OS(=O)(=O)O)[C@@H](OP(=O)(O)O)[C@H]1O; assay: sulfotransferase kinetics, HPLC-MS; assay type: biochemical, Mycolicibacterium smegmatis; conditions: sulfonate acceptor trehalose, Mg2+, pH 7.5, 35 °C (general assay)
Description: sulfotransferase kinetics, HPLC-MS on trehalose sulfotransferase (Stf0)

B1: estrogen sulfotransferase (EST) (Mus musculus) (protein)
chain: METSMPEYYEVFGEFRGVLMDKRFTKYWEDVEMFLARPDDLVIATYPKSGTTWISEVVYMIYKEGDVEKCKEDAIFNRIPYLECRNEDLINGIKQLKEKESPRIVKTHLPPKLLPASFWEKNCKMIYLCRNAKDVAVSYYYFLLMITSYPNPKSFSEFVEKFMQGQVPYGSWYDHVKAWWEKSKNSRVLFMFYEDMKEDIRREVVKLIEFLERKPSAELVDRIIQHTSFQEMKNNPSTNYTMMPEEMMNQKVSPFMRKGIIGDWKNHFPEALRERFDEHYKQQMKDCTVKFRMEL
B1 was tested, and the Km [1] was 1560 ± 260 µM, the kcat [1] was 0.00849 ± 0.000572 s⁻¹ and the kcat/Km [1] was 5.44 M⁻¹ s⁻¹.

B2: aryl sulfotransferase IV (AST IV) (Rattus norvegicus) (protein)
chain: MEFSRPPLVHVKGIPLIKYFAETIGPLQNFTAWPDDLLISTYPKSGTTWMSEILDMIYQGGKLEKCGRAPIYARVPFLEFKCPGVPSGLETLEETPAPRLLKTHLPLSLLPQSLLDQKVKVIYIARNAKDVVVSYYNFYNMAKLHPDPGTWDSFLENFMDGEVSYGSWYQHVKEWWELRHTHPVLYLFYEDIKENPKREIKKILEFLGRSLPEETVDSIVHHTSFKKMKENCMTNYTTIPTEIMDHNVSPFMRKGTTGDWKNTFTVAQNERFDAHYAKTMTDCDFKFRCEL
notes: recombinant in E. coli; N-terminal GST fusion printed for the whole-cell work
B2 showed a Km (purified protein) of 2450 ± 500 µM, a kcat (purified protein) of 0.00688 s⁻¹ and a kcat/Km (purified protein) of 2.81 M⁻¹ s⁻¹. For the same protein, the Km [2] was 1430 ± 172 µM, the kcat [2] was 0.0131 ± 0.000614 s⁻¹ and the kcat/Km [2] was 9.19 M⁻¹ s⁻¹.

B3: trehalose sulfotransferase (Stf0) (Mycolicibacterium smegmatis MC2 155) (protein)
chain: MSDHPTAYLVLASQRSGSTLLVESLRATGVAGEPQEFFQYLPNTSMSPQPREWFADVEDQSILRLLDPLIEGKPDLAPATIWRDYIQTVGRTPNGVWGGKLMWNQTPLLVQRAKDLPDRSGSGLLSAIRDVVGSDPVLIHIHRPDVVSQAVSFWRAVQTRVWRGRPDPVRDARAEYHAGAIAHVITMLRAQEEGWRAWFTEENVEPIDVDYPYLWRNLTEVVGTVLEALGQDPRLAPKPVLERQADQRSDEWVERYRRDAQRDGLPL
For B3, the Km [3] was 820 ± 60 µM, the kcat [3] was 0.00988 ± 0.00025 s⁻¹ and the kcat/Km [3] was 12.1 M⁻¹ s⁻¹.
